Data taken from publication PMC8253144 (mAbs, 2021).

Molecular target: recombinant human EPHA2 ectodomain (Homo sapiens, UniProt P29317)
Assay: BLI

Chain of recombinant human EPHA2 ectodomain (P29317 24-537): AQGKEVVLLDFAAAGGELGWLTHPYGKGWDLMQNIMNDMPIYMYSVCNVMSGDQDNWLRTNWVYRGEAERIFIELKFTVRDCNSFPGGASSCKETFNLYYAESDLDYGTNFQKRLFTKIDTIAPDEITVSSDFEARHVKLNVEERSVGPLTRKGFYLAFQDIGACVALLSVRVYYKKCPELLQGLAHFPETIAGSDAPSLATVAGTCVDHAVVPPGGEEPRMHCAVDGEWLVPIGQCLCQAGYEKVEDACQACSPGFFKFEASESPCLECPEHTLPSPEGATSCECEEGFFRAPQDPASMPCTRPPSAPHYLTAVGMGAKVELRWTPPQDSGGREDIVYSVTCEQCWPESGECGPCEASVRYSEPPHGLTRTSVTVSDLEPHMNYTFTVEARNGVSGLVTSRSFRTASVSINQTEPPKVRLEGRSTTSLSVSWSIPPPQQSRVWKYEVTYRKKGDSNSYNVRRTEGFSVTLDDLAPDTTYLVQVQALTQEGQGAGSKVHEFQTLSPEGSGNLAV

B1: anti-EPHA2 Fab A2-3 (Fab, V domains shown)
VH: EVQLVESGGGLVQPGGSLRLSCAASGFNISYYYMHWVRQAPGKGLEWVASIYPSYSYTSYADSVKGRFTISADTSKNTAYLQMNSLRAEDTAVYYCARGGVVSWAHPAASYYVYGAMDYWGQGTLVTVSS
VL: DIQMTQSPSSLSASVGDRVTITCRASQSVSSAVAWYQQKPGKAPKLLIYSASSLYSGVPSRFSGSRSGTDFTLTISSLQPEDFATYYCQQAVWSGYPITFGQGTKVEIK
- binding result: binds

B2: anti-EPHA2 Fab A2-4 (Fab, V domains shown)
VH: EVQLVESGGGLVQPGGSLRLSCAASGFNISSYYMHWVRQAPGKGLEWVASISPSYSYTYYADSVKGRFTISADTSKNTAYLQMNSLRAEDTAVYYCARGWSFVGMDYWGQGTLVTVSS
VL: DIQMTQSPSSLSASVGDRVTITCRASQSVSSAVAWYQQKPGKAPKLLIYSASSLYSGVPSRFSGSRSGTDFTLTISSLQPEDFATYYCQQGAPWSPITFGQGTKVEIK
- binding result: binds
